In patent US20240025993A1, “CD19 BINDING MOLECULES AND USES THEREOF” (NOVARTIS AG, priority 2020, published 2024):

Experiments:
[1] = Aggregation propensity (% HMW) by analytical SEC of IgG1 anti-CD3 antibody and Fc variants (Example 35); assay type: physicochemical; settings: PBS pH 7.4, anti-CD3 antibodies
Experimental: Size exclusion chromatography measurements were performed to evaluate the aggregation propensity (% HMW) of IgG1 antibody and Fc modified derivatives. The produced and purified anti CD3 antibodies were applied to an analytical size exclusion chromatography column (SEC 200, GE Healthcare), equilibrated with PBS buffer pH 7.4.

[2] = Differential scanning calorimetry, melting temperature of Fc modified anti-CD3 antibodies (Example 35); assay type: physicochemical; settings: DSC, 1 mg/ml in PBS pH 7.4, anti-CD3 IgG1 Fc variants
Experimental: Calorimetric measurements were carried out on a differential scanning micro calorimeter (Nano DSC, TA instruments). The cell volume was 0.5 ml and the heating rate was 1° C./min. All proteins were used at a concentration of 1 mg/m in PBS (pH 7.4). The molar heat capacity of each protein was estimated by comparison with duplicate samples containing identical buffer from which the protein had been omitted. The partial molar heat capacities and melting curves were analyzed using standard procedure. Thermograms were baseline corrected and concentration normalized.

[3] = system: Jurkat NFAT luciferized (JNL) cells with THP-1 cells; assay: Anti-CD3 NFAT signalling assay, JNL + THP-1 cells (Example 36); assay type: cell-based, human
Experimental: Jurkat reporter gene assay (RGA) for the nuclear factor of activated T-cells (NFAT) pathway was performed using Jurkat NFAT luciferized (JNL) cells and THP-1 cells (ATCC, TIB202). THP-1 cells express FcγRI, FcγRII, and FcγRIII. Cells were co-incubated for 6 hours at 37° C., 5% CO2 at a 5:1 effector to tumor ratio with each sample at the various concentrations depicted. An equal volume of ONE-Glo™ reagent (Promega, E6110) was added to the culture volume. Plate was shaken for 2 minutes, then incubated for an additional 8 minutes protected from light. For JNL+ THP+IFNg experiment, THP-1 cells were pre-treated with 100 u/mL IFNg for 48 hours at 37° C., 5% CO2 before co-culture. IFNg stimulation increases FcγRI expression. Luciferase activity was quantitated on the EnVision plate reader (PerkinElmer). Data was analyzed and fit to a 5 parameter-logistic curve using GraphPad Prism.

[4] = molecular target: human FcγR1A (Homo sapiens, UniProt P12314); assay: SPR binding of Fc modified anti-CD3 IgG1 antibodies (Example 34); settings: anti-CD3 IgG1 antibody immobilized
Sequence of human FcγR1A (P12314 16-374): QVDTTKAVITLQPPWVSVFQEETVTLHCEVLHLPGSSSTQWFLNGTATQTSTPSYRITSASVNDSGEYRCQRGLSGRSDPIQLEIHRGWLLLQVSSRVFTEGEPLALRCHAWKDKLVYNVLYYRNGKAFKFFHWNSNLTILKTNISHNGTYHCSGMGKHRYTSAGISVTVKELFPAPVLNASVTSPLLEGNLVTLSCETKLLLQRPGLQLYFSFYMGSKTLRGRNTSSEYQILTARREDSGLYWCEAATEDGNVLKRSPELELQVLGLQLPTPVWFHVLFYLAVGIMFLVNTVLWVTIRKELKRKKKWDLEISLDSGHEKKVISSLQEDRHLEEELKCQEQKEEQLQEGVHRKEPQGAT
Experimental: Surface plasmon resonance (SPR) experiments were performed to analyze the interaction of human activating receptors FcγR1A, FcγR3A (V158) and human C1q with IgG1 WT and antibody-Fc variants. Binding kinetics and their relative binding affinities were explored. The binding affinity is an important characteristic of an interaction between an antibody and an antigen. The equilibrium dissociation constant (KD) defines how strong the interaction is and therefore how much antibody-antigen complex is formed at equilibrium.
The knowledge of the antibody characteristics is not only essential during selection of the best therapeutic antibody candidate, but also important to understand the in vivo behavior and potentially predict cellular immune responses. […] Binding to human C1q was evaluated. […] SPR measurements were measured on a Biacore T200 (GE-Healthcare Life Sciences) controlled by Biacore T200 control software version 2.0.1. […]
The antibodies were covalently immobilized on a CM5 sensor chip whereas Fc gamma receptors or human C1q served as analytes in solution (FIG. 38). […] Zero concentration samples (blank runs) were measured for both methods to allow double-referencing during data evaluation.
Data were evaluated using the Biacore T200 evaluation software. […] In addition, the maximum response reached during the experiment was monitored. […]

[5] = system: T cells co-cultured with OCI-LY-19, Karpas422 or Toledo target cells; assay: TBM and BBM mediated T cell proliferation (Example 20); assay type: cell-based, human; settings: in the presence of OCI-LY-19 and Toledo cells; E:T 1:3, 96 hrs
Experimental: Briefly, OCI-LY-19, Karpas422, and Toledo target cells stably expressing firefly luciferase were plated in a 96 well plate in T Cell Media (TCM) (RPMI-1640, ThermoFisher Scientific, Cat #11875-085), 10% FBS (Seradigm, Cat #1500-500), 1% L-Glutamine (Thermo Fisher Scientific, Cat #25830-081), 1% Non Essential Amino Acids (Thermo Fisher Scientific, Cat #11140-050),1% Pen/Strep (Thermo Fisher Scientific, Cat #15070063), 1% HEPES (Thermo Fisher Scientific, Cat #15630080), Sodium Pyruvate (Thermo Fisher Scientific, Cat #11360-070), 0.1% Beta-mercaptoethanol (Thermo Fisher Scientific, Cat #21985-023)]. PBMCs previously isolated and cryopreserved from 2 Leukopak donors were thawed and Pan T cells were isolated (as described earlier). Isolated T cells were labelled with 5 μM Cell Trace Violet (CTV) (Thermo Fisher Scientific, Cat #C34557) following the manufacturer's protocol and were co-cultured with target cells at an E:T ratio of 1:3. A dilution series of CD3med TSP1, CD3hi TSP1, CD3hi BSP1, CD3hi TSP1C, and blinatumomab ranging from 2.5 nM-0.0006 nM was added to cells and the plates were incubated in a 5% CO2, 37° C. incubator for 96 hrs. […]

[6] = THP-1 cells preincubated with IFNg (100 u/mL, 48 hours)

| Substance | (%) higher molecular weight [1] | Melting temperature (Tm) of CH2 domain [2] | NFAT activity (T-cell activation) [3, 6] | NFAT activity (T-cell activation) ([3]; without IFNg, JNL:THP-1 5:1, 6 hours) | Maximum response at 100 nM hFcgammaRIA (RU) [4] | T cell proliferation (% proliferated CD3+ T cells) [5] |
| --- | --- | --- | --- | --- | --- | --- |
| DAPA-IgG1: anti-CD3 IgG1 with D265A/P329A; previously described silencing motif [reference compound] | 3.9% | 65 °C | some activity remaining | comparable T-cell activation with the exception of DAPA | – | – |
| LALAGA-IgG1: anti-CD3 IgG1 with L234A/L235A/G237A | 2.9% | 70 °C | – | – | 15 RU | – |
| LALAPA-IgG1: anti-CD3 IgG1 with L234A/L235A/P329A | 1.8% | 70 °C | some activity remaining | – | – | – |
| LALAPG-IgG1: anti-CD3 IgG1 with L234A/L235A/P329G | 4.2% | 70 °C | – | – | 18 RU | – |
| blinatumomab: bispecific T cell engager, or BiTE, that binds to both CD19 and CD3 but lacks an Fc domain [reference compound] | – | – | – | – | – | most potent T cell proliferation |
